7 molecules from paper PMC8610377, “Target identification for small-molecule discovery in the FOXO3a tumor-suppressor pathway using a biodiverse peptide library” (Cell Chemical Biology, 2021) can be followed below.

Assay [1] has as its system GFP-FOXO3a localization in U2OS-GFP-FOXO3a cells. The assay can be described thus: FOXO3a relocalisation assay, small-molecule inhibitors, U2OS-GFP-FOXO3a. The class given is cell-based, human. Here is the method:
Cells were transfected with plasmid DNA or siRNA or treated with compounds and incubated for the indicated time. Cells were then fixed in a final concentration of 3.7% formaldehyde by addition of fixative directly to the medium for 10min, then stained with 4 μg/mL Hoechst 33,342 (Invitrogen). For testing of peptides in the U2OS-GFP-FOXO3a cell line, cells were transfected with plasmid DNA using FuGENE 6 (Promega, E2691) as described for the screen. For testing of peptides in the HEK293T cell line, cells were co-transfected with a plasmid encoding the test plasmid and a plasmid encoding GFP-FOXO3a using JetPRIME transfection reagent in 96-well plates. At the indicated time point, cells were then fixed and stained as described above. Leptomycin B was purchased from NEB. PI-103 and BEZ235 were purchased from Selleckchem. GSK690693 was purchased from Sigma. […] Average intensities were calculated for each region and the ratio between nuclear and cytoplasmic GFP-FOXO3a was then calculated. […] Results were then expressed as the percentage of cells with nuclear GFP-FOXO3a. […] Images were acquired and then analyzed using a range of nuclear:cytoplasmic ratios to identify a ratio which reproducibly gave the maximal window between DMSO and PI-103 treated cells. […] Median intensities were calculated for each region and the ratio between nuclear and cytoplasmic GFP-FOXO3a was then calculated.

In a further assay the target is T1, 9J10/14-3-3ε interaction (Homo sapiens, UniProt P62258).
T1 construct: A synthetic gene construct encoding full length human 14-3-3ε; made in house; host or cells: E. coli BL21(DE3)
T1 sequence (P62258 1-255): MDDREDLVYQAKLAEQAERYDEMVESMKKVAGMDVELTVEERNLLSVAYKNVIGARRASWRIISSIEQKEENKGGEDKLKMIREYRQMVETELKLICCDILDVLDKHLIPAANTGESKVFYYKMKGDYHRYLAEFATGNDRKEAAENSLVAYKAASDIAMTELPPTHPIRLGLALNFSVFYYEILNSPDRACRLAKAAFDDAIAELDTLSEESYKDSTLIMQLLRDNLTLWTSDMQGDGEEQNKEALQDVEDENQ
As to the kind of experiment: FP competition, TAMRA-p9J10Min binding to 14-3-3ε. The note with it: 10nM TAMRA-p9J10Min, 1.5μM His-14-3-3ε, room temperature 20 min; mean of 3 independent experiments +/- SD; read-out: IC50, FP competition (unlabelled peptide). As for the experimental part: Protein purity was visualized by running SDS-PAGE. […] Compound dilution plates, black 384 well NBS assay plates and tip racks were loaded into the Cytomat as indicated by the scheduling software. […] Test compounds were diluted to 3X final concentration in the dilution plates. 10 μL of diluted compound was added into each well of the assay plate followed by 10μL of […]-3-3ε and 10μL of TAMRA-p9J10Min. Plates were incubated at room temperature for 20 min on the robot's deck or in the Cytomat before the Fluorescence Polarisation was read using the BMG PheraStar plate reader. Test compounds were assayed in triplicate. […] DMSO controls were run alongside all experimental compounds and % inhibition normalised to these controls. All other experimental conditions were as described above.

Assay [2] addresses TAMRA-9J10Min peptide (5-TAMRA-GRRRN(p-Serine)N-acid) (Streptomyces avermitilis). The assay can be described thus: fluorescence polarisation; His-14-3-3ε titrated against 10 nM TAMRA-p9J10Min; 10 mM HEPES, 150 mM NaCl, 0.05% Tween; room temperature.
The target in assay [3] is 6x His-14-3-3ε (full length human 14-3-3ε) (human) (UniProt P62258). The assay can be described thus: MST; 20 nM NT-647-labelled 14-3-3ε with cognate peptide (16-point dilution; 1 μM in the competitive assay with CU7218); 10 mM Hepes, 150 mM NaCl, 0.01% Tween 20; 25°C.
For assay [4] the target is unchanged. As to the kind of experiment: fluorescence polarisation; competition: unlabelled 9J10 peptide titrated against 10 nM TAMRA-p9J10Min bound to 1.5 μM His-14-3-3ε; 10 mM HEPES, 150 mM NaCl, 0.05% Tween. (Fluorescence polarisation rises when a labelled molecule tumbles more slowly, as on binding a larger partner.)
The test system of assay [5] is transcriptome of HEK293T cells. The assay can be described thus: RNA sequencing, differential gene expression. The conditions noted are these: 24 h. The class given is cell-based, human. As for the experimental part: HEK293T cells were transfected in T75 flasks with plasmid DNA encoding Vector, 9J10^WT, 9J10^AMut, GFP-FOXO3a-AAA or GFP, using JetRPIME transfection reagent. Cells were harvested 24 hr post-transfection. Five independent transfections on different days and using cells of different passage number were carried out for each condition.
Total RNA was isolated using the Qiagen RNeasy Mini Kit (#74104) complete with DNase digestion (Qiagen #79254), according to manufacturers instructions. RNA was submitted to Novogene for transcriptome sequencing. RNA degradation and contamination was monitored on 1% agarose gels. RNA purity was checked using the NanoPhotometer spectrophotometer (IMPLEN, CA, USA), and RNA integrity and quantitation were assessed using the RNA Nano 6000 Assay Kit of the Bioanalyzer 2100 system (Agilent Technologies, CA, USA).
HTSeq v0.6.1 was used to count the read numbers mapped to each gene, and then FPKM of each gene was calculated based on the length of the gene and reads count mapped to this gene. FPKM, […] Per Kilobase of exon model per Million mapped reads, considers the effect of sequencing depth and gene length for the reads count at the same time, and is currently the most commonly used method for estimating gene expression levels ([Mortazavi et al., 2008]).
Differential expression analysis between two conditions/groups (with biological replicates) was performed using the DESeq2 R package (2_1.6.3). DESeq2 provide statistical routines for determining differential expression in digital gene expression data using a model based on the negative binomial distribution. The resulting p values were adjusted using the Benjamini and Hochberg's approach for controlling the False Discovery Rate (FDR). Genes with an adjusted p value of <0.05 found by DESeq2 were assigned as differentially expressed.

Assay [6] deals with 6x His-14-3-3ε (full length human 14-3-3ε) (human) (UniProt P62258). As to the kind of experiment: ITC; 24 μM 14-3-3ε in the cell titrated with 360 μM TAMRA-9J10; 25°C; 50 mM HEPES, 150 mM NaCl, 0.5 mM DTT; one set of sites model. Background: Isothermal titration calorimetry measures the heat released or taken up as one component is titrated into another.
[7] abbreviates: GFP-FOXO3a-AAA vs GFP, adjusted p <0.05.

For the molecule `CCC(=C/[C@H](C)C/C=C/C(C)=C/[C@@H](C)C(=O)[C@@H](C)[C@H](O)[C@@H](C)C/C(C)=C/C(=O)O)/C=C/[C@@H]1OC(=O)C=C[C@@H]1C` [leptomycin B], the “relocalization of GFP-FOXO3a to the nucleus” value in assay [1] (U2OS-GFP-FOXO3a, 3 hr treatment, Figure 1A: PI-103 1 μM, GSK690693 1 μM, leptomycin 2 nM) is on record as “can be relocalized to the nucleus”.

As a reminder, the IC50 is the point on the concentration scale where inhibition reaches its midpoint. Regarding `CC(C)C[C@H](N)C(=O)N[C@@H](CC(N)=O)C(=O)N[C@@H](CCCNC(=N)N)C(=O)N[C@H](C(=O)N1CCC[C@H]1C(=O)NCC(=O)N[C@@H](CCCNC(=N)N)C(=O)N[C@@H](CCCNC(=N)N)C(=O)N[C@@H](CCCNC(=N)N)C(=O)N[C@@H](CC(N)=O)C(=O)N[C@@H](COP(=O)(O)O)C(=O)N[C@@H](CC(N)=O)C(=O)O)[C@@H](C)O` [unlabeled 9J10-derived phosphopeptide], the IC50 at 9J10/14-3-3ε interaction turned out to be 9800 ± 1200 nM.

As a reminder, the Kd is the equilibrium constant for the complex coming apart. For the molecule “6x His-14-3-3ε (full length human 14-3-3ε) (from UniProt P62258 1-255) (natural protein)”, the dissociation constant Kd in assay [2] amounted to 1470 nM.

As for `Oc1cccc(-c2nc(N3CCOCC3)c3oc4ncccc4c3n2)c1` [PI-103], the “nuclear translocation of GFP-FOXO3a” value in assay [1] (1 μM PI-103, positive control) was “high degree of nuclear translocation of GFP-FOXO3a”.

B1: Unlabelled 9J10 peptide (…(p-Serine)N-acid) (peptide)
peptide: LNRTPGRRRNSN
HELM: PEPTIDE1{L.N.R.T.P.G.R.R.R.N.[O=C([C@H](COP(=O)(O)O)N[*:1])[*:2]].N}$$$$V2.0; N-terminus assumed
SMILES: CC(C)C[C@H](N)C(=O)N[C@@H](CC(N)=O)C(=O)N[C@@H](CCCNC(=N)N)C(=O)N[C@H](C(=O)N1CCC[C@H]1C(=O)NCC(=O)N[C@@H](CCCNC(=N)N)C(=O)N[C@@H](CCCNC(=N)N)C(=O)N[C@@H](CCCNC(=N)N)C(=O)N[C@@H](CC(N)=O)C(=O)N[C@@H](COP(=O)(O)O)C(=O)N[C@@H](CC(N)=O)C(=O)O)[C@@H](C)O
The EC80 is the concentration at which the effect reaches the 80% level. High values mean weaker potency, low ones greater potency. B1 yielded an EC80 in assay [3] of 1000 nM. Moreover, the IC50 in assay [4] turned out to be 9800 nM.

B2: GFP-FOXO3a-AAA: constitutively active GFP-tagged FOXO3a mutant (protein, UniProt O43524 1-673, looked up, variant T32A S253A S315A)
Forkhead box protein O3: MAEAPASPAPLSPLEVELDPEFEPQSRPRSCAWPLQRPELQASPAKPSGETAADSMIPEEEDDEDDEDGGGRAGSAMAIGGGGGSGTLGSGLLLEDSARVLAPGGQDPGSGPATAAGGLSGGTQALLQPQQPLPPPQPGAAGGSGQPRKCSSRRNAWGNLSYADLITRAIESSPDKRLTLSQIYEWMVRCVPYFKDKGDSNSSAGWKNSIRHNLSLHSRFMRVQNEGTGKSSWWIINPDGGKSGKAPRRRAVAMDNSNKYTKSRGRAAKKKAALQTAPESADDSPSQLSKWPGSPTSRSSDELDAWTDFRSRTNANASTVSGRLSPIMASTELDEVQDDDAPLSPMLYSSSASLSPSVSKPCTVELPRLTDMAGTMNLNDGLTENLMDDLLDNITLPPSQPSPTGGLMQRSSSFPYTTKGSGLGSPTSSFNSTVFGPSSLNSLRQSPMQTIQENKPATFSSMSHYGNQTLQDLLTSDSLSHSDVMMTQSDPLMSQASTAVSAQNSRRNVMLRNDPMMSFAAQPNQGSLVNQNLLHHQHQTQGALGGSRALSNSVSNMGLSESSSLGSAKHQQQSPVSQSMQTLSDSLSGSSLYSTSANLPVMGHEKFPSDLDLDMFNGSLECDMESIIRSELMDADGLDFNFDSLISTQNVVGLNVGNFTGAKQASSQSWVPG
modifications: GFP tag
For B2, in assay [5] (setting [7]), the “number of downregulated genes” value was 2,569 genes and the “number of upregulated genes” value is 3,026 genes. For the same molecule, in assay [5] (HEK293T), the “CDKN1A (p21^Cip1) expression” value is reported as “upregulated” and the “CDKN1B (p27^Kip1) expression” value is “upregulated”.

B3: TAMRA-9J10 peptide (5-TAMRA-…(p-Serine)N-acid) (peptide)
peptide: LNRTPGRRRNSN
HELM: PEPTIDE1{[CN(C)c1ccc2c(-c3ccc(C(=O)[*:2])cc3C(=O)[O-])c3ccc(N(C)C)cc3[o+]c2c1].L.N.R.T.P.G.R.R.R.N.[O=C([C@H](COP(=O)(O)O)N[*:1])[*:2]].N}$$$$V2.0
SMILES: CC(C)C[C@H](NC(=O)c1ccc(-c2c3ccc(N(C)C)cc3[o+]c3cc(N(C)C)ccc23)c(C(=O)[O-])c1)C(=O)N[C@@H](CC(N)=O)C(=O)N[C@@H](CCCNC(=N)N)C(=O)N[C@H](C(=O)N1CCC[C@H]1C(=O)NCC(=O)N[C@@H](CCCNC(=N)N)C(=O)N[C@@H](CCCNC(=N)N)C(=O)N[C@@H](CCCNC(=N)N)C(=O)N[C@@H](CC(N)=O)C(=O)N[C@@H](COP(=O)(O)O)C(=O)N[C@@H](CC(N)=O)C(=O)O)[C@@H](C)O
As to B3, in assay [6], the Kd came to 700 nM.
